The record followed here is US20220332804A1 (CSL INNOVATION, published 2022).

Residue numbers refer to the chain shown, from its start.

Holding throughout (experiment): SPR, mAb captured, C2 mutant analyte;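 further: Anti-C2 mAbs captured on goat anti-human IgG Biacore CM5 chips, alanine or serine C2 surface mutants flowed over at 37 °C, double-referenced sensorgrams fitted to a 1:1 binding model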
(Surface plasmon resonance follows binding to a sensor surface in real time, without labels.)

In one test the target is T1, human C2 N380A (human, UniProt P06681 21-752).
T1 sequence: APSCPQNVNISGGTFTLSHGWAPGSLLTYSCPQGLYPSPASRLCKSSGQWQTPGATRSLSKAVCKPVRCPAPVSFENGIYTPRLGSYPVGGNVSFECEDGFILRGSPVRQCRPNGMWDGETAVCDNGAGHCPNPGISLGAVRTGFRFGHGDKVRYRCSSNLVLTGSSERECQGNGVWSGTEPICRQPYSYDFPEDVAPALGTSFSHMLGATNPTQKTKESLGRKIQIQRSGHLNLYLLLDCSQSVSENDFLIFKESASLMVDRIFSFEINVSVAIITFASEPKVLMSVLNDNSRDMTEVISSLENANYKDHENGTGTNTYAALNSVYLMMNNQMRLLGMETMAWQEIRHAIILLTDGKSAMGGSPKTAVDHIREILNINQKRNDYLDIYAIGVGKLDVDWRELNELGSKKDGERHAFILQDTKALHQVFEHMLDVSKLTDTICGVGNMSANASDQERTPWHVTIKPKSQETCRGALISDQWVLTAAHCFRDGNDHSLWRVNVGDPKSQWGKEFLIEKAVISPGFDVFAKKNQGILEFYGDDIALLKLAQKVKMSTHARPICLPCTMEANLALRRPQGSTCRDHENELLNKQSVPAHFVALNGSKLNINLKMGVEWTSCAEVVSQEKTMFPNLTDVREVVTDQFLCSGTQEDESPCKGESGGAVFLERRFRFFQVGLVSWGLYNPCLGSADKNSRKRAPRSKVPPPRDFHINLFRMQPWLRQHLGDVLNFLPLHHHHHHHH

A further test concerns the target T2, human C2 D417A (human, UniProt P06681 21-752).
T2 sequence: T1 sequence with A360N, D397A

The target of the next test is T3, human C2 S428A (human, UniProt P06681 21-752).
T3 sequence: T1 sequence with A360N, S408A

For a further test, the target named is T4, human C2 H331A (human, UniProt P06681 21-752).
T4 sequence: T1 sequence with H311A, A360N

B1: RF16-214 (antibody, V domains shown)
VH: EVQLLESGGGLVQPGGSLRLSCAASGFTFSWYQMMWVRQAPGKGLEWVSRIYPSGGGTAYADSVKGRFTISRDNSKNTLYLQMNSLRAEDTAVYYCARDAGYGDNWGQGTLVTVSS
VL: QSALTQPPSVSVSPGQTASITCSGDKLGEKYASWYQQKAGQSPVMVIYQDRKRPSGIPERFSGSNSGNTATLTISGTQAMDEADYYCQAWDTRAVVFGGGTKLTVLG
In the case of B1, the figures for the Kd with human C2 N380A, with human C2 D417A and with human C2 S428A were 58.8 nM, 56.4 nM and 58.6 nM, respectively. The binding result with human C2 H331A is recorded as “no binding”.

As a reminder, the Kd is the equilibrium constant for the complex coming apart. Higher therefore signals a looser complex.
